Measured values from the DeepSol protein solubility set.

experiment: soluble on expression in E. coli; label from the status in PepcDB or PDB records

| Sequence | soluble on expression in E. coli |
| --- | --- |
| MADIPLSGKPRTQVLRWQRQNWVAGLRWEEKQKSVRRAPVQRRGVLNVVLTVKQGKSRLTALGQIEAGWRHQKLYSLAALFSQQCTPNGYGVYQLDDGRQVFLATVKGMPSPMADVIGTPDQIIRARELFLSFNPAPEDGWTIPSSPEFPLSWNTLVGQVSSAQLRFARVAGVSNPLRPYGAGVLSVAALLGGAVWWSRLPEPPVAPVVQELPAPVQDVFKKTPEPVYLPHPWADMPVARHFLNRCQRWRAAVPVSLDRWRLERIRCSAEGLETVYQRQPGGTAAGFAERVKQVFKRTPVFNLVSGGNEGVVFIPWAKFTLQDETAPDAGTQLMQAVSWFQSRQVSFSLSLEHHHHHH | not soluble |
| MGSDKIHHHHHHMDVAAEYPVDKPDTQVSVRDVFGIESDLTVPAFTEVSEHVPDRDDAYCFDRDTTLAVLAGFAFNRRVMIQGYHGTGKSTHIEQIASRLNWPCIRVNLDSHVSRIDLVGKDAIVLRDGLQVTEFREGILPWCLQRPIALTFDEYDAGRADVMFVIQRVLEVEGRLTLLDQNKVIRPHPYFRLFATANTVGLGDTTGLYHGTQQINQGQMDRWNIVATLNYLEHDVEVGIALAKRPEYDTPEGRAKINAMVGVADLSRSGFINGDISTVMSPRTVLTWAENATIFGDDAFAFRVTFLNKCDETERPIIAEYYQRCFGKELPESAAFRTAFL | not soluble |
| MNITKTLCLCAALSGAAGVQAMENREFVTQQDNTRVNNYQTNRPEASKRLFVSQEVERQIDHIKQLLTNAKLAWMFENCFPNTLDTTVHFDGKEDTFVYTGDIHAMWLRDSGAQVWPYVQLANKDPELKKMLAGVINRQFKCINIDPYANAFNMNSEGGEWMSDLTDMKPELHERKWEIDSLCYPIRLAYHYWKTTGDASVFSDEWLQAIANVLKTFKEQQRKDDAKGPYRFQRKTERALDTMTNDGWGNPVKPVGLIASAFRPSDDATTFQFLVPSNFFAVTSLRKAAEILNTVNRKPALAKECTALADEVEKALKKYAVCNHPKYGKIYAFEVDGFGNQLLMDDANVPSLIALPYLGDVKVTDPIYQNTRKFVWSEDNPYFFKGSAGEGIGGPHIGYDMIWPMSIMMKAFTSQNDAEIKTCIKMLMDTDAGTGFMHESFNKNDPKNFTRAWFAWQNTLFGELILKLVNEGKVDLLNSIQLEHHHHHH | soluble |
| GLECDGKVNICCKKQFFVSFKDIGWNDWIIAPSGYHANYCEGECPSHIAGTSGSSLSFHSTVINHYRMRGHSPFANLKSCCVPTKLRPMSMLYYDDGQNIIKKDIQNMIVEECGCS | soluble |
| MEKLTMQEEEVMIYIWELESCYVKDIVAKFEQPTPPYTTVASIVKNLERKKYVKAQRVGNTYLYTPSIKESEYKRSFMSGVVRNYFENSYKEMVSFFAKDQKISTNDLKEIIDMIEKGQEK | not soluble |
| MSPAQIIRTPHSFPPSFTGTSSSAENSHAQSPQQVLTRAFVASGELNAAFGRTSTASEQDFTSLLGTLQRELERKTLSFPDIAELANQLAEAAKGDQGGHWLGRDEQQTLKGMIDRCKSQLAHTHASDASYDPLAQVCENLKTARLHQSISQMTGEAHAKVRGVPDLLALIQLDPDVLAEKPVGMTSYVNFGSFICMAKARTAELSEDLRSDPNEVALLLHPHADTILELERLPDALAALTENCPDTPTRDDLRSLAKETGELLQQLRANDLLPRSEEVSSYQGETSVRSREVVEPKLTLCQAGGNGQGQLEASSARPESLRYAPTRAASSGSEARVPGQAVGGKIADDAQKVAGLYAEKKRTNWTQANGVAGKISHKIQSLLGMRDAGSRVQAFVAFMADGKGRPGATMLDLGDGWMRATRVIKGEAALIDFQCDSDGKVVDARHPGRFPVLPQGNEREAFKTVLQELKFRGAETLSKVPVYYVNRNTRGYVIPTHGYVVAGHPNRGRKSGAVLYGVGGDPKRGPVALDEKLLGHLVGRSDSKTSSKLSAPVKAAISALAGASFATREDFYDAYCAVRGDAVDPLERHNEISSIYRLLPLSTMEMWPKKADDYRVARPA | not soluble |
| MNSKCHCVILNDGNFIPVLGFGTALPLECPKSKAKELTKIAIDAGFHHFDSASVYNTEDHVGEAIRSKIADGTVRREDIFYTSKVWCTSLHPELVRASLERSLQKLQFDYVDLYLIHYPMALKPGEENFPVDEHGKLIFDRVDLCATWEAMEKCKDAGLTKSIGVSNFNYRQLEMILNKPGLKYKPVCNQVECHPYLNQMKLLDFCKSKDIVLVAYGVLGTQRDGGWVDQNSPVLLDEPVLGSMAKKYNRTPALIALRYQLQRGIVVLNTSLKEERIKENMQVFEFQLSSEDMKVLDGLNRNMRYIPAAIFKGHPNWPFLDEY | soluble |
| MHAGEAVQQLKKAFETVASFDFRDALSKASTPVTVVATNGPFGLAGLTCSAVCSVCDRPPTVLLCINRKSYAAGIIKSNGVLSVNWLAAGQAVISQTFAGVGSVPMEERFADKGWQTIATGAPYRMDAAVSFDCTIANIVDVGSHSVIFAEVVARNHAEECTPLIYHRRQYATTRSLAEHHHHHH | soluble |
| ASEEEKAWLMASRQQLAKETSNFGFSLLRKISMRHDGNMVFSPFGMSLAMTGLMLGATGPTETQIKRGLHLQALKPTKPGLLPSLFKGLRETLSRNLELGLTQGSFAFIHKDFDVKETFFNLSKRYFDTECVPMNFRNASQAKRLMNHYINKETRGKIPKLFDEINPETKLILVDYILFKGKWLTPFDPVFTEVDTFHLDKYKTIKVPMMYGAGKFASTFDKNFRCHVLKLPYQGNATMLVVLMEKMGDHLALEDYLTTDLVETWLRNMKTRNMEVFFPKFKLDQKYEMHELLRQMGIRRIFSPFADLSELSATGRNLQVSRVLQRTVIEVDERGTEAVAGILSEITAYSMPPVIKVDRPFHFMIYEETSGMLLFLGRVVNPTLL | soluble |
| MGHHHHHHSHMYADEVDKDRRTFKKNFSSARGSGIDGKWKRDMFQTANRSPKQNFTTKRRAQTNFVTKAGAAAAGLATRNISTASIRGRTAPAVVREIHTGPSTLIIKNLATTVTQEDLEELFEQYEPELVQLHYGPTGESNGCADLIVPHAQVAIIQKALEGVLLDGEPIEVLEANPPKQVSVFDRIKKVSRGNDFKAKNMRVVVKSKGGFQKRGARGDF | soluble |
| MPTDKEGDFIDPKEQEESLENIFSSLNDFQEKTDANAQKNEQKNEQEEEQRRLKEQQRLRKNQKNQEMLKGLQQNLNQFAQKLESVKNKTLDLQIPKQDGVDEKAYQEWYAQIYQILYKGWKGVFYHKASVSALIMIAKDGEFDYTILSYSDFKDYNKSVMTLLNDLKKVDFPPYPGGSMISIQVNFTTKEEQ | not soluble |
| MNILLCCAAGMSSSLIVTKMEKAAEARGIEVKIWAVSGSEVNSHIDEADVLLLGPQVRYLLPKMKELCKGKGVPVDVIQSVHYGLCNGEAILQAALSMKP | not soluble |
| NTRLLEEIEERRRSERFFHATIDSLTAPVAILNGEGDIVTVNRAWRKFADENGGLHPNHFIGYNYLGLCDNVKGDDAVTASAVARGIRELIAGRINEFHVDYPCHSPDEQRWFQVRVTRLENGSRGRVAVVHENIS | not soluble |
| MNNTVKTDGDSVSGRDLPITKISEDRFERSAYSAQLANIICDVAPWGASTVFSLTGQWGSGKTSLVNLIRSEESLSNEKWTIVDFNPWVASDPQSLIEEFYRVIVGTVPDDKTGQKIKTVLQKTFSTIGSIAGGVGGFGVLEALALSKGVDAANAVYKTWKQEQDSWPTLYTRAANHFKDLNKRILIVVDDIDRLHTDELALLMKVIRLLGRFPQVNYLLVYEEESLLTTLARSTAVGGSEDDALRFMEKIVQYPFDVPPLTSFQIEKELSALFDKLFQGVSLSGDPEDFALVKSRMFDVWEKTLVTPRLLHRFAALLTNWTRIYGSGEVNGVDLTILATIRIVFPSVYKRLSRAKEVLLQGGRTTGLEHHHHHH | soluble |
| MGSDKIHHHHHHMPFDGLLLHKAVRELKELEGEHLRQIYQPTTVDYYFLFRSATVRVCLRPDVSHVAIAEKEEASEKMPSSFTMLLRKELKGAKLLKVEQIGMDRTLRFSFEKFDEIEGIVQKDLYIEIMGIHSNMILVRDRRIIDAHRRIVTKKREILPGREFVIFPSGKVSIFELRELPPESEKTIRNVLLSLLEGFSPVSVEELIHRTGYELDTPWKAVDQRKILEVLEEIKKELELPGVFVYYEASHPVEVSAFRFTMLSLKERYFEKPSEGINEFVRWKEEKSTFENTKNRFIKVVVNRIEDLEDLEEKLSRELSEAEKAERYKKLGDLIVQNLWSIKGKSGEVELTDWETNEKIVVDVGKDPAQTAQKFYNTYKKLQRKKEQVEKRLEEIQREKEYLYQLWQTIEDAEDLETLEEIEEEMREFGLLKERKTKKQKSKKTRFREVYYGGFKILIGRNNKQNDELVRTSSKEDLWFHAHEMPGAHVVVKTEGKKVPQEVVEYAASLAAGYSKGKNSGKVPVDYTFIKYVRKPKGFKPGMVIYKNYKTILVEPRRIEG | not soluble |
| MSGRGEPTMKTIIVGIDGSHAAITAALWGVDEAISRAVPLRLVSVIKPTHPSPDDYDRDLAHAERSLREAQSAVEAAGKLVKIETDIPRGPAGPVLVEASRDAEMICVGSVGIGRYASSILGSTATELAEKAHCPVAVMRSKVDQPASDINWIVVRMTDAPDNEAVLEYAAREAKLRQAPILALGGRPEELREIPDGEFERRVQDWHHRHPDVRVYPITTHTGIARFLADHDERVQLAVIGGGEAGQLARLVGPSGHPVFRHAECSVLVVRR | not soluble |
| MGSDKIHHHHHHMSTPQFGRKVSLIIGQDSGDALDLSELRFRFDVRRGDLQTPNSARVRVYNVSPDTARRAQREFSRLVLQAGYPGNFGIIFDGTIKQVRRGRENQTDTYLDITAADGDSAYNFAVVNTTLAAGSTPSDHVAAACTAMNPYGVTQGYLPSLPSNPLPRGKVMFGMAREFMRWTARTCQTVWSIQDGKAIMVPETSYMPGEIPVITAETGMVGLPEQTQNGIAIKMLLNPSVKIGRLIQIDNASVQQYEYSLNVGQQAQNERIEQQAKLQDDGFYYVMLAEHYGDTRGNDFYTDVICLAADVTVLPDSFRDKAAVPPDNVIKRFG | not soluble |
| MIGKRFFQTTSKKIAFAFDIDGVLFRGKKPIAGASDALKLLNRNKIPYILLTNGGGFSERARTEFISSKLDVDVSPLQIIQSHTPYKSLVNKYSRILAVGTPSVRGVAEGYGFQDVVHQTDIVRYNRDIAPFSGLSDEQVMEYSRDIPDLTTKKFDAVLVFNDPHDWAADIQIISDAINSENGMLNTLRNEKSGKPSIPIYFSNQDLLWANPYKLNRFGQGAFRLLVRRLYLELNGEPLQDYTLGKPTKLTYDFAHHVLIDWEKRLSGKIGQSVKQKLPLLGTKPSTSPFHAVFMVGDNPASDIIGAQNYGWNSCLVKTGVYNEGDDLKECKPTLIVNDVFDAVTKTLEKYA | soluble |
| MSKPGRTILASKVAETFNTEIINNVEEYKKTHNGQGPLLVGFLANNDPAAKMYATWTQKTSESMGFRYDLRVIEDKDFLEEAIIQANGDDSVNGIMVYFPVFGNAQDQYLQQVVCKEKDVEGLNHVYYQNLYHNVRYLDKENRLKSILPCTPLAIVKILEFLKIYNNLLPEGNRLYGKKCIVINRSEIVGRPLAALLANDGATVYSVDVNNIQKFTRGESLKLNKHHVEDLGEYSEDLLKKCSLDSDVVITGVPSENYKFPTEYIKEGAVCINFACTKNFSDDVKEKASLYVPMTGKVTIAMLLRNMLRLVRNVELSKEK | soluble |
| MAFSRTHSLLARAGSTSTYKRVWRYWYPLMTRGLGNDEIVFINWAYEEDPPMDLPLEASDEPNRAHINLYHRTATQVDLGGKQVLEVSCGHGGGASYLTRTLHPASYTGLDLNQAGIKLCKKRHRLPGLDFVRGDAENLPFDDESFDVVLNVEASHCYPHFRRFLAEVVRVLRPGGYFPYADLRPNNEIAAWEADLAATPLRQLSQRQINAEVLRGIGNNSQKSRDLVDRHLPAFLRFAGREFIGVQGTQLSRYLEGGELSYRMYCFTKD | not soluble |
